By Km is commonly meant the concentration of substrate that gives half-maximal velocity.

This data set has as its system O=C(CO)COP(=O)(O)O. Description: purified protein. The note with it: DHAP to G3P direction, 100 mM TEA-HCl pH 7.6, 1 mM EDTA, 1 mM NAD+, 5 mM disodium hydrogen arsenate, 25 °C, 0.16-10 mM DHAP.

As to recombinant Bm-TPI (Brugia malayi), the Km was found to be 1800 µM.
Consider “recombinant Ls-TPI (Litomosoides sigmodontis)”, for which the Km worked out at 1933 µM.

The values above are taken from PMC3937304, “The Secreted Triose Phosphate Isomerase of Brugia malayi Is Required to Sustain Microfilaria Production In Vivo” (PLoS Pathogens, 2014).
